This experiment addresses Orai1-GFP (UniProt Q96D31). The experiment can be described thus: FRET or BRET.
UniProt Q96D31, sequence (Q96D31 whole entry): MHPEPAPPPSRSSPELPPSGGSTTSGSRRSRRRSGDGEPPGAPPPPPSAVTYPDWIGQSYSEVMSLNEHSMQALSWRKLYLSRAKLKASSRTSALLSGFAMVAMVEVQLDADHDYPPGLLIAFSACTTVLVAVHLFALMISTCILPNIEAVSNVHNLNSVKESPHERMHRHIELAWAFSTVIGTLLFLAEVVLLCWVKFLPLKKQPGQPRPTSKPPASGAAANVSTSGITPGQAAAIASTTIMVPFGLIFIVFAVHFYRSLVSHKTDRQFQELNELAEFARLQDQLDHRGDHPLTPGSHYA

In turn, “STIM1A-mCherry (from UniProt Q13586) (natural protein)” gave an E-FRET of 0.26.

Source of the values: publication doi:10.1101/2020.03.25.005199.
